Reference: patent publication US20180051064A1 (AJOU UNIVERSITY INDUSTRY ACADEMIC COOPERATION FOUNDATION, published 2018)
Where no end group is shown, it is not given here. Fc = antibody heavy-chain constant region Fc (hinge-CH2-CH3)

B1: Fc-TPP1 fusion protein (Fc fusion, not shown: a dimerising Fc or GST; small tags and cut ends)
chain: Fc-GGGGSGGGGSGGGGSHTPGNSNQFVLTSTRPPR
modifications: also: Fc letters not given here, disulfide-linked homodimer through Fc hinge
notes: Expressed in HEK293-F and purified on Protein A; disulfide-linked dimer
B2: synthetic peptide TPP11 not fused to Fc (peptide)
peptide: HTPGNSKPTRTPRR
modifications: also: biotinylated for ELISA, position not given here
notes: also called TPP11 peptide; synthesized TPP11 peptide
B3: Fc-TPP8 fusion protein (Fc fusion, not shown: a dimerising Fc or GST; small tags and cut ends)
chain: Fc-GGGGSGGGGSGGGGSHTPGIATRTPR
modifications: also: Fc letters not given here, disulfide-linked homodimer through Fc hinge
notes: as for B1

Columns and labels:
[1] = molecular target: T1, NRP2-b1b2 (275-595) protein (UniProt O60462 275-595); assay: SPR (Biacore 2000), NRP2-b1b2 immobilised on CM5 chip
T1 construct: range 275-595; also called neuropilin-2 b1b2 protein
T1 sequence (looked up): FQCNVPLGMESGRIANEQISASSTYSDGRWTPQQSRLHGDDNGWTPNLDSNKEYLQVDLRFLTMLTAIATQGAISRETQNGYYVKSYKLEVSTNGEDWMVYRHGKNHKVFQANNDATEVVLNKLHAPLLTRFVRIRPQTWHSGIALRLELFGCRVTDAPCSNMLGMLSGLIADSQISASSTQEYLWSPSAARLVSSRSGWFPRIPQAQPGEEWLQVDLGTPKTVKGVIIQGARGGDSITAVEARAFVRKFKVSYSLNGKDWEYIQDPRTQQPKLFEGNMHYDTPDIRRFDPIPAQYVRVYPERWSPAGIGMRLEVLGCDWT
Description: (§1) Specifically, each of NRP1 and NRP2 b1b2 proteins was diluted in 10 mM Na-acetate buffer (pH 4.0), and immobilized on a CM5 sensor chip (GE healthcare, USA) at about 1000 response units (RU). […] After binding and dissociation analysis, regeneration of the CM5 chip was performed by flushing buffer (20 mM NaOH, 1M NaCl, pH10.0) at a flow rate of 30 μl/min for 1 minute.

[2] = molecular target: T2, NRP1-b1b2 (273-586) protein (UniProt O14786 273-586); assay: SPR; KD on NRP2-b1b2 divided by KD on NRP1-b1b2
T2 construct: range 273-586; Prepared according to Appleton et al. 2007; Biotinylated (Sulfo-NHS-LC-biotin) for the yeast display FACS; unlabelled in ELISA and SPR; also called neuropilin-1 b1b2 protein; biotinylated NRP1-b1b2
Description: as §1

[3] = molecular target: T2, NRP1-b1b2 (273-586) protein; assay: ELISA on immobilised NRP1-b1b2, absorbance at 405 nm [A]
Description: (§2) 1 μg of each of NRP1-b1b2 (273-586) protein, NRP2-b1b2 (275-595) protein and the control group VEGFR2 (46-753) was immobilized in each well of a 96-well EIA/RIA plate (COSTAR Corning In., USA) at room temperature for 1 hour, and then washed three times with 0.1% PBST (0.1% Tween20, pH 7.4, 137 mM NaCl, 10 mM Phosphate, 2.7 mM KCl, SIGMA-ALDRICH co., USA) for 10 minutes. After binding with 5% skim milk (5% Skim milk, pH 7.4, 137 mM NaCl, 10 mM Phosphate, 2.7 mM KCl, SIGMA-ALDRICH co., USA) for 1 hour, each well was washed three times with 0.1% PBST (0.1% Tween20, pH 7.4, 137 mM NaCl, 10 mM Phosphate, 2.7 mM KCl, SIGMA-ALDRICH co., USA) for 10 minutes. […] Each well was bound with AP-conjugated anti-biotin antibody (alkaline phosphatase-conjugated anti-biotin mAb, Sigma, USA), and then reacted with pNPP ([…], SIGMA-ALDRICH co., USA), and the absorbance at 405 nm was measured.

[4] = molecular target: T2, NRP1-b1b2 (273-586) protein; assay: SPR (Biacore 2000), NRP1-b1b2 immobilised on CM5 chip
Description: as §1

[5] = molecular target: T2, NRP1-b1b2 (273-586) protein; assay: competitive ELISA on NRP1-b1b2; TPP11 peptide varied, blocked ligand RPARPAR [10 µM], relative binding (%) [B]
[6] = molecular target: T2, NRP1-b1b2 (273-586) protein; assay: ELISA, biotinylated peptide (100 nM) on coated NRP1-b1b2
Description: as §2

[7] = molecular target: T2, NRP1-b1b2 (273-586) protein; assay: SPR; lower end tied to Fc-TPP8 by Table 5 (65.8)
Description: as §1

T2 sequence (O14786 273-586 limits assumed, form in doubt): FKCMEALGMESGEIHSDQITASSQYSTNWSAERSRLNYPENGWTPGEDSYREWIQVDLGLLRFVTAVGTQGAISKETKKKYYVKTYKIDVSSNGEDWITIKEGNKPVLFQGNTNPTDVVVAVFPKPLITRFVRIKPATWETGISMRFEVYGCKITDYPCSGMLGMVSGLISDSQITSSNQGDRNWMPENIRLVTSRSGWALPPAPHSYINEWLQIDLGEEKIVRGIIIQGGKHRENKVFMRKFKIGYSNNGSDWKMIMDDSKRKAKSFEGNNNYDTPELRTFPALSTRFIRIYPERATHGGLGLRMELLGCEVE

| Binder | Kd [1] | Binding Affinity Ratio [(KD for NRP2)/KD for NRP1)] [2] | EC50 (read off the curve) [3] | Kd [4] | IC50 (read off the curve) [5] | fold lower affinity than Fc-TPP11 [6] | fold higher affinity for NRP1 than for NRP2 [7] |
| --- | --- | --- | --- | --- | --- | --- | --- |
| B1 | 1130 nM | 625 | ~0.5 nM | 1.81 nM | – | – | – |
| B2 | – | – | – | – | ~2000 nM | 100 fold | – |
| B3 | 254 nM | 65.8 | ~3 nM | 3.85 nM | – | – | 60 fold |
